According to paper PMC5374546:
Blank lines part the entries; values can stand above or below the molecule they belong to.

Columns and labels:
[1] = biological target: Fcε3-4 Fcε3-4 (Homo sapiens) (UniProt P01854); assay: sedimentation equilibrium; settings: cited from earlier work
[2] = biological target: IgE-Fc (Val224-Lys547, with glycosylation-site double mutation N265Q and N371Q) (human); assay: ITC; 260 uM derCD23 in the syringe titrated into 12.5 uM IgE-Fc dimer in the cell; 25 mM Tris-HCl pH 7.4, 125 mM NaCl, 4 mM CaCl2; 25 °C; iTC200; two-site (2:1) binding model

UniProt P01854, sequence (P01854 209-426): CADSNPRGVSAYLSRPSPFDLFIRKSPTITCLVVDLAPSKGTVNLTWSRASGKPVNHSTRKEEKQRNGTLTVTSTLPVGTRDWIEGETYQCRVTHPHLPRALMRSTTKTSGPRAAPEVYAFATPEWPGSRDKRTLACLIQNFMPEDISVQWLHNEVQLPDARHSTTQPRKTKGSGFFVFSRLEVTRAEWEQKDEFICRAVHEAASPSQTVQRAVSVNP

Molecule: derCD23 derCD23 (from UniProt P06734)
Kd [1]: 10 µM

KD1 (site 1 of the two-site model) [2]: 1.2 µM
KD2 (site 2 of the two-site model) [2]: 14.4 µM
dH1 (site 1 of the two-site model) [2]: -7.2 kcal/mol
dH2 (site 2 of the two-site model) [2]: -3.7 kcal/mol
stoichiometry N (derCD23 per IgE-Fc dimer) [2]: 2
B1: derCD23 (soluble monomeric lectin-like head domain of human CD23, Ser156-Glu298) (domain or fragment)
chain: SGFVCNTCPEKWINFQRKCYYFGKGTKQWVHARYACDDMEGQLVSIHSPEEQDFLTKHASHTGSWIGLRNLDLKGEFIWVDGSHVDYSNWAPGEPTSRSQGEDCVMMRGSGRWNDAFCDRKLGAWVCDRLATCTPPASEGSAE
